Measured values taken from publication PMC3166162, “A Dual Binding Mode for RhoGTPases in Plexin Signalling” (PLoS Biology, 2011).

Key:
[1] = target: Plexin-B1_(cyto) (entire cytoplasmic domain of human Plexin-B1, residues 1511-2135) (human) (UniProt O43157); assay: crystal structure; Plexin-B1_(cyto) and Rac1* mixed 1:1.2; 1 M Li2SO4, 0.5 M ammonium sulphate, 0.1 M citrate pH 5.6; 4.4 Å; three complexes in the asymmetric unit
[2] = target: T1, Plexin-B1_(cyto), wild type, biotinylated within an engineered C-terminal tag for SPR (human, UniProt O43157-1 1511-2135, biotin, added enzymatically within the engineered C-terminal tag); assay: SPR; Biacore T100, 25°C, standard buffer with 0.05% (v/v) Tween 20; biotinylated plexin constructs on streptavidin surfaces (500-5,000 RU); RhoGTPase injected, 120 nM to 500 µM; equilibrium responses fitted to a 1:1 Langmuir model; conditions: both partners purified
T1 construct: human Plexin-B1, cytoplasmic region, residues 1511-2135; also called Plexin-B1cyto WT; full-length Plexin-B1_(cyto); source: purified; mutant constructs for SPR: HEK 293T; not shown: engineered tag for enzymatic biotinylation, C-terminal, kept

[3] = target: T2, Plexin-B1_(cyto) Leu2036Arg (human, UniProt O43157-1 1511-2135, Leu2036Arg, biotin, added enzymatically within the engineered C-terminal tag); assay: as above; conditions: both partners purified
T2 construct: human Plexin-B1, cytoplasmic region, residues 1511-2135; also called Leu2036Arg^Plex; site B mutant; source: HEK 293T cells, transfected, purified; not shown: engineered tag for enzymatic biotinylation, C-terminal, kept
T2 sequence (O43157 1511-2135 L2036R): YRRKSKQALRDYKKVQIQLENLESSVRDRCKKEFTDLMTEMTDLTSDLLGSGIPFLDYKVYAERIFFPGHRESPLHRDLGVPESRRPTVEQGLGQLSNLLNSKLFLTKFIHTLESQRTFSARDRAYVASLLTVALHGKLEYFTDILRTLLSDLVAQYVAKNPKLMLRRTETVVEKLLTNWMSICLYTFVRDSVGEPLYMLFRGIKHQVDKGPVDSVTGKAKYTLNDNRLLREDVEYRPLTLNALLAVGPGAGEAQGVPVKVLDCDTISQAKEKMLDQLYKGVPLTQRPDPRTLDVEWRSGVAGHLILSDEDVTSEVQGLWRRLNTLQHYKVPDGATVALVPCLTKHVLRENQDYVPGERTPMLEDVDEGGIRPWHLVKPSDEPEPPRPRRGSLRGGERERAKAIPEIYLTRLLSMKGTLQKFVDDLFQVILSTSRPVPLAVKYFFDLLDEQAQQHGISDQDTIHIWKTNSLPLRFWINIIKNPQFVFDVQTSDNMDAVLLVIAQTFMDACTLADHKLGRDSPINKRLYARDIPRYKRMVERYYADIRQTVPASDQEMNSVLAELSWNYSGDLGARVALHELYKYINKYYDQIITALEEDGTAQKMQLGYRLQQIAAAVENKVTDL

[4] = target: T3, Plexin-B1_(cyto) Thr1920Glu (human, UniProt O43157-1 1511-2135, Thr1920Glu, biotin, added enzymatically within the engineered C-terminal tag); assay: as above; conditions: both partners purified
T3 construct: human Plexin-B1, cytoplasmic region, residues 1511-2135; also called Thr1920Glu^Plex; site B mutant; source: HEK 293T cells, transfected, purified; not shown: engineered tag for enzymatic biotinylation, C-terminal, kept
T3 sequence (O43157 1511-2135 T1920E): as the sequence (O43157 1511-2135 L2036R) above, with T410E, R526L counted along it

[5] = target: T4, Plexin-B1_(cyto) Arg1921Ala (human, UniProt O43157-1 1511-2135, Arg1921Ala, biotin, added enzymatically within the engineered C-terminal tag); assay: as above; conditions: both partners purified
T4 construct: human Plexin-B1, cytoplasmic region, residues 1511-2135; also called Arg1921Ala^Plex; site B mutant; source: HEK 293T cells, transfected, purified; not shown: engineered tag for enzymatic biotinylation, C-terminal, kept
T4 sequence (O43157 1511-2135 R1921A): as the sequence (O43157 1511-2135 L2036R) above, with R411A, R526L counted along it

Plexin-B1Δ2 Leu1815Glu [6] = target: Plexin-B1Δ2 Leu1815Glu (human, UniProt O43157-1 1543-2135, Leu1815Glu, biotin, added enzymatically within the engineered C-terminal tag); assay: SPR; surface 5,000 RU
Target sequence in this assay (O43157 1543-2135 L1815E): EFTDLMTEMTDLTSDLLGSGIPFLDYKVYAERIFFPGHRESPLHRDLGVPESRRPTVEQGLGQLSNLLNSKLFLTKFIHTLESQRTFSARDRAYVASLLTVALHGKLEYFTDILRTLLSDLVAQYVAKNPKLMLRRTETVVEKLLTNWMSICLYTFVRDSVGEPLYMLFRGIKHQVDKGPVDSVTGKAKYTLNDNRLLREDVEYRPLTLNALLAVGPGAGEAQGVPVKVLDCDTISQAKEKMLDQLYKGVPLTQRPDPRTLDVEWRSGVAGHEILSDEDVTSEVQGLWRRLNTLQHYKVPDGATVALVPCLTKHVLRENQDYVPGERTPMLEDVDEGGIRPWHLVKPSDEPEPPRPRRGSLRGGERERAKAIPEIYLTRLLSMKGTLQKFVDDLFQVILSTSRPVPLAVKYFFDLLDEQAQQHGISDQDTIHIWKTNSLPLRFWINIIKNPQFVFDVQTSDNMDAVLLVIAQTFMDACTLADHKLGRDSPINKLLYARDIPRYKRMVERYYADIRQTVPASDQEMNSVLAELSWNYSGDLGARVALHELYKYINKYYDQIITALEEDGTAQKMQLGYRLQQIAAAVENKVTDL

Plexin-B1Δ2 Leu1815Glu [7] = target: T5, Plexin-B1Δ2 Leu1815Glu (human, UniProt O43157-1 1543-2135, Leu1815Glu, biotin, added enzymatically within the engineered C-terminal tag); assay: SPR; as a1, high coupling density: 5,000 RU of the plexin construct loaded on the chip; RhoGTPase 120 nM to 2,000 µM; conditions: both partners purified
T5 construct: human Plexin-B1, cytoplasmic region lacking the N-terminal helix, residues 1543-2135; also called site A Plexin-B1Δ2 mutant Leu1815Glu^Plex; source: HEK 293T cells, transfected, purified; not shown: engineered tag for enzymatic biotinylation, C-terminal, kept
T5 sequence (O43157 1543-2135 L1815E): as above

[8] = target: Plexin-B1_(cyto) Leu2036Arg (human, UniProt O43157-1 1511-2135, Leu2036Arg, biotin, added enzymatically within the engineered C-terminal tag); assay: SPR
Target sequence in this assay (O43157 1511-2135 L2036R): as the sequence (O43157 1511-2135 L2036R) above

[9] = target: Plexin-B1_(cyto) Arg1921Ala (human, UniProt O43157-1 1511-2135, Arg1921Ala, biotin, added enzymatically within the engineered C-terminal tag); assay: SPR
Target sequence in this assay (O43157 1511-2135 R1921A): as the sequence (O43157 1511-2135 L2036R) above, with R411A, R526L counted along it

[10] = target: Plexin-B1_(cyto) Thr1920Glu (human, UniProt O43157-1 1511-2135, Thr1920Glu, biotin, added enzymatically within the engineered C-terminal tag); assay: SPR
Target sequence in this assay (O43157 1511-2135 T1920E): as the sequence (O43157 1511-2135 L2036R) above, with T410E, R526L counted along it

T1 sequence (O43157 1511-2135, stated change not applied): as the sequence (O43157 1511-2135 L2036R) above, with R526L counted along it

Molecule “Plexin-B1_(cyto) (entire cytoplasmic domain of human Plexin-B1, residues 1511-2135) (from UniProt O43157-1 1511-2135) (domain or fragment)” has a stoichiometry N [1] of 3.

B1: Rnd1 (residues 5-200) (enzyme, human, UniProt Q92730 5-200, looked up)
chain: RAPQPVVARCKLVLVGDVQCGKTAMLQVLAKDCYPETYVPTVFENYTACLETEEQRVELSLWDTSGSPYYDNVRPLCYSDSDAVLLCFDISRPETVDSALKKWRTEILDYCPSTRVLLIGCKTDLRTDLSTLMELSHQKQAPISYEQGCAIAKQLGAEIYLEGSAFTSEKSIHSIFRTASMLCLNKPSPLPQKSPV
notes: human Rnd1, residues 5-200; source: E. coli BL21 Star, purified
With B1 the Kd [2] was 22.9 µM, the binding result [3] was “binds” and the binding result [4] was “binds”. For the same molecule, the binding result [5] was “binds”, the Kd (Plexin-B1Δ2 Leu1815Glu [6]) was 486 µM and the binding result (Plexin-B1Δ2 Leu1815Glu [7]) was “binds”. The Kd [8] was 16.5 µM, the Kd [9] was 15.2 µM and the Kd [10] was 14.2 µM.
